Data as given in PMC8158043 (mAbs, 2021).

Molecular target: SARS-CoV-2 RBD (residues 319–541) (SARS-CoV-2, UniProt P0DTC2)
Assay: BLI

B1: CR3014 parental (human IgG1) (antibody, V domains shown)
VH: EVQLVESGGGLVQPGGSLRLSCAASGFTFSDHYMDWVRQAPGKGLEWVGRTRNKANSYTTEYAASVKGRFTISRDDSKNSLYLQMNSLKTEDTAVYYCARGISPFYFDYWGQGTLVTVSS
VL: not shown
B1: no binding.
